Assay results reported in the supplement of paper PMC12042874.
± gives the uncertainty stated by the source.

Assay: amyloid nucleation score (Sup35N fusion, yeast selection) (log enrichment); library NNK2; higher = more nucleation; inactive = no reads after selection
Summary of the method: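 Nucleation score is defined as the DiMSum log enrichment of output over input reads, with centring on the mode score of non-aggregating sequences. A minimum of 100 input reads was required for each sequence. Reads came from Illumina sequencing of plasmid inserts from psi-negative yeast expressing Sup35N fused to peptides of 20 random codons, induced with 100 μM copper sulfate for 24 hours and grown 7 days at 30°C on medium lacking adenine and uracil.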

Substance	amyloid nucleation score
VRTWESIVCCI	4.14 ± 0.051
VSCTWFGS	0.797 ± 0.28
VSDSNFNNGRYWLSVWRDVV	4.25 ± 0.067
VSFRYCLYYYTENVVHMIVK	-1.85 ± 0.54
VSFTARSRHVDGGLSS	1.04 ± 0.32
VSKRNDLQTSFLYMMHLALQ	-0.536 ± 1
VSLGDYASAGFLMWIRLHVW	-0.03 ± 0.56
VSLINFFVNL	8.418 ± 0.056
VSLIVYKGHKRGWVYRVSRR	0.42 ± 0.65
VSLLFTPTNEYIWGTPLALR	inactive
VSLMKYQVELGNWKEPTCLG	0.14 ± 0.56
VSLSERLTHLLCIRF	0.343 ± 0.64
VSLSLC	-0.288 ± 0.5
VSQSDMDLHWLVYRVYWYVF	-0.893 ± 0.44
VSSTSLNSKDQWCCCERGSP	0.619 ± 0.64
VSTIIWCIR	5.143 ± 0.047
VSVARSSFARKDYCEFFRPG	1.17 ± 0.28
VSVDHSDFRLNAVSE	1 ± 0.17
VSVGACTHTLYKVRALSQGV	0.486 ± 0.26
VSWTPWESIFSGVMV	-0.568 ± 0.61
VSYVYYSM	-0.242 ± 1.1
VTFYGGAYSENYLVRCYALN	4.47 ± 0.057
VTMYPFRRIVGRQQLMAWLY	0.973 ± 0.38
VTNCNPDRW	-0.149 ± 0.63
VTNVCGWRTEGWYDPGSAKT	1.13 ± 0.33
VTNVSQISNSRNVMERSIMF	-1.2 ± 0.41

Substance	amyloid nucleation score
VTNYVEFCTGFRICGVSLPC	8.387 ± 0.036
VTPTEGCSVSHVRSRSLKNA	-0.511 ± 0.49
VTPTFCETLVKPLHALHTNC	-1.22 ± 0.62
VTRHLVVLNKYKWLGRLSTI	-1.04 ± 0.76
VTRSLLLCHFSTCCFSALTW	-0.086 ± 0.32
VTSLHSYSMMFPPMWMSNQS	1.54 ± 0.32
VTSYHFRMSCAVREALSSRY	4.26 ± 0.055
VTTMRNSFKFYAIVMGLCSF	0.272 ± 0.65
VTVLTGVG	4.79 ± 0.058
VTVMTRLDFSTRSSATKPHG	5.667 ± 0.044
VTYDCL	inactive
VTYFNVYSYCKYSAKGRCAS	6.22 ± 0.081
VVFNFFCPNHGAVTMFSCFH	8.838 ± 0.03
VVFVCN	inactive
VVILFVLGLVNPELS	0.649 ± 0.55
VVKDLRT	1.91 ± 0.48
VVLPFGMHAWYTKDNVEISS	0.181 ± 0.15
VVLSCFLQRAPQVYSLF	-0.821 ± 1.1
VVMHQSAVCYEHEMTLVRRF	0.027 ± 1
VVMMSGYILTSTSLVYYHFY	0.005 ± 0.54
VVNSGICSYRCFTVGQVTYK	-0.553 ± 0.55
VVNTVYSFSE	0.332 ± 0.35
VVPYS	inactive
VVQGVIFNGDMLNRGSLGKI	-0.129 ± 0.79
VVRGRSGLCNMFWCDRQRRL	-0.63 ± 0.34
VVSCGYARHDVGDFWLRDCR	0.481 ± 0.38

Substance	amyloid nucleation score
VVSFSVRSIPCSRVSFMAFS	-0.304 ± 0.54
VVSPRVTGNME	0.302 ± 0.23
VVSVFSSYVRQCCYGGWEV	6.67 ± 0.077
VVVDGSLRVNLVSQGDPNNV	1.07 ± 0.25
VVVHSTLLGFWIIF	inactive
VVVIGNFVSPRDIRFISMYT	8.118 ± 0.047
VVWWGVNR	0.091 ± 0.38
VVYSSSFVAGLYDSMCWMWG	1.49 ± 0.24
VWDHVAGARALTWLRMLLKQ	inactive
VWDLMLKKAFTNSSNCYSVA	1.19 ± 0.19
VWEVAMISTINSAGHLCLGD	-0.109 ± 0.76
VWGFVSGIESMCGSKAPNGG	-0.158 ± 0.33
VWHLLRKSFSFR	0.619 ± 0.8
VWKVVKIRAL	inactive
VWMDIRSYLVGGLLTAVPRD	0.481 ± 0.2
VWPLCGCAWRWSGKWGGTRW	6.41 ± 0.077
VWVCSRTGQSQYIISYTALW	1.65 ± 0.2
VWWFIYVLGVVSTDAKVSPS	inactive
VYALCMGLAWKGLDYHKGER	5.68 ± 0.07
VYCSSCSVFLLCVKNLSWCV	8.658 ± 0.053
VYEVNGLSAGRMMSICNRRN	-0.467 ± 0.44
VYFFCYSFTYEEGMAIRKSC	-1 ± 0.78
VYFSCFSLWSSYDVIGRWSC	7.446 ± 0.036
VYGFP	7.112 ± 0.048
VYLDWFYWPDTIHG	4.87 ± 0.075
VYLFGGIRFDR	4.04 ± 0.049

Substance	amyloid nucleation score
VYLINRWVYPWEFIVHIIRV	inactive
VYMGSDL	6.07 ± 0.072
VYQYICFRVYGVVHWVGSSA	1.4 ± 0.28
VYRQNLNLNME	0.189 ± 0.64
VYSANSWH	-0.364 ± 0.3
VYVIFPPLSTSLPVSMSYNL	-0.548 ± 1.1
VYYLCVWF	-1.18 ± 0.41
VYYLVCGL	0.147 ± 0.38
VYYVSRLLTFFPVSSNPCGS	0.566 ± 0.56
WAFNPTELLVDAQKSRGRIW	inactive
WANFWSGWKVTLVCCCKIVA	3.7 ± 0.078
WAVSATWWNFLSVYRKLSDL	-0.095 ± 1.1
WAYAVNPTCYNFVGTGGSCS	2.44 ± 0.11
WCLSLPVRDSTVCLSTVLSG	0.294 ± 0.29
WCMLRYCVESGLSVSFMHFS	-0.626 ± 0.63
WCSNR	0.153 ± 0.45
WDALGNVRRAMWVPS	0.048 ± 0.41
WDGNYSSKVCFTQLRMSWCL	1.75 ± 0.27
WDGYGVYFQTQAKVR	0.102 ± 0.63
WDRTTDSSFQVRKYQSENFL	0.092 ± 1.1
WDSIVDVSSKIAFFRMNDSS	-1.41 ± 0.62
WDTSGRFVLNWVFWEGHPKM	0.768 ± 0.56
WFAKRW	inactive
WFAWYCSSRYRHRR	3.57 ± 0.087
WFDGDQDSNRQTVPIPQLPP	0.549 ± 0.45
WFFYWMYRGYSINMIFEMLD	-2.15 ± 0.49

Substance	amyloid nucleation score
WFGYIYFHTTYSFFGHPAAT	-1.5 ± 1.1
WFHGTGSQHS	inactive
WFLHRGSIGYQTAFFCSYLP	-0.208 ± 1.1
WFQLRMVLTGEFEPVLERSR	2.86 ± 0.11
WFSLFLPPVSSKRQPADEMA	-0.317 ± 1.1
WFYTYSLFGFVVNIVFTYPL	-0.176 ± 0.36
WGCSHKLTCVGARHLVLD	2.46 ± 0.17
WGFTLWKLWRV	0.676 ± 0.15
WGITGLVCV	-0.674 ± 0.76
WGNNSYSPFASKYAVSQDMD	-0.902 ± 0.62
WHGTDHKIVGQDIVVVYSAV	0.491 ± 0.6
WHLCFISHTLRGMRTLWSIR	-0.829 ± 1.1
WHMSWLK	0.114 ± 0.63
WHNITWYMFGPFMPGGEMLM	0.446 ± 0.5
WIAGLCPVDMADL	0.644 ± 0.23
WIARC	-0.149 ± 0.42
WIDGVFTIVSFYMELEGIRV	inactive
WIHMSFGRLNRYMVRMRGRM	-0.71 ± 1
WILYLRMNYWKRTCYHAIGM	-0.214 ± 0.22
WINLSRFFSLGKFRIAIRYY	-1.04 ± 1.1
WIVSGKLTTTFSLRR	5.15 ± 0.058
WKVCLVYDKTFWHVEVEGES	0.042 ± 0.8
